Experiments:
tPA [1] = assay: Ni-NTA pull-down of purified tPA by His6-tagged recombinant proteins; assay type: binding, human; conditions: Ni-NTA beads coated with His6-tagged protein, 1 μg purified tPA, 2 hours room temperature, eluted with imidazole
Method: The possibility of a direct protein-protein interaction between tPA and latent PDGF-CC was explored by developing a pull-down assay. Ni-NTA beads were allowed to bind recombinant His6-tagged latent PDGF-CC or PDGF-DD, and purified tPA was added and incubated. Following extensive washings, bound proteins were subsequently eluted with an imidazole-containing buffer, and the eluates were analyzed by immunoblotting using specific antibodies.
To determine a direct protein-protein interaction between tPA and PDGF-CC, His6-tagged recombinant protein species were bound to Ni-NTA-agarose (Qiagen) and then incubated with 1 μg of purified tPA for 2 hours at room temperature. Uncoated and PDGF-DD coated Ni-NTA beads were used as controls. The beads were washed thoroughly, and His6-tagged proteins were specifically eluted with 400 mM imidazole. Eluted proteins were analyzed by SDS-PAGE under reducing conditions and immunoblotted with antibodies against human tPA (see above). The membranes were subsequently stripped and reprobed with specific antibodies.

tPA [2] = assay: Cotransfection assay in COS-1 cells: PDGF-CC forms and mutants coexpressed with tPA; assay type: cell-based, human; conditions: over-expression of free CUB domain (CUBc-myc) with full-length PDGF-C and tPA in COS-1 cells
Source text: The structural requirements for recognition of full-length PDGF-CC as a substrate for tPA were mapped by analysis of several mutated forms of PDGF-CC using the co-transfection assay. The mutants of PDGF-CC included a chimeric form of PDGF-C carrying the CUB domain from PDGF-D and the hinge region and growth factor domain of PDGF-C (mutant PDCUBPC), and several truncation mutants lacking the CUB domain and increasing parts of the hinge region (schematically illustratrated in FIG. 6A). All mutants were properly expressed in transfected COS-1 cells, formed disulfide-linked dimers (data not shown), and were efficiently secreted, except truncation mutant Δ190 that was expressed at a lower level in the conditioned medium (FIG. 6B).
A conserved site of four amino acids containing three basic amino-acid residues (amino-acid residues -R-K-S-R-) was previously identified as a potential site for proteolytic activation of latent PDGF-CC (Li et al, 2000). […]
To test the endogenous expression of PDGF-CC, subconfluent AG1523 cells and primary fibroblast cultures were cultured in serum-free DMEM overnight. […] In the case of the primary cultures, total protein concentration was measured and normalized (Bradford, 1976). […] PDGF-C and PDGF-D were detected by immunoblotting using affinity-purified polyclonal rabbit antibodies against PDGF-C (Li et al, 2000) and PDGF-D (Bergsten et al, 2001), respectively. […]

PDGFR-α = molecular target: T1, PDGFR-α (Mus musculus, UniProt P26618); assay: PDGFR-α tyrosine phosphorylation in primary fibroblasts; assay type: cell-based; conditions: 100 ng/ml activated PDGF-CC protein
T1 construct: endogenous in cells; host or cells: primary mouse kidney and lung fibroblasts
Method: It is known that constitutive activation of PDGFRs by PDGFs leads to receptor desensitization (Heldin and Westermark, 1999), and therefore it was investigated whether the differences observed in growth between the wild-type and tPA-deficient fibroblasts upon PDGF-CC treatment were due to differential activation of PDGFR-α. Recombinant PDGF-CC protein was applied onto the primary fibroblasts and receptor activation was measured as induction of PDGFR-α tyrosine phosphorylation (FIG. 7D, upper panel).
To monitor growth factor-induced tyrosine phosphorylation of PDGFR-α, serum-starved PAE cells stably expressing human PDGFR-α were incubated for 120 min on ice with conditioned medium from COS-1 cells transfected with full-length PDGF-C in the absence or presence of tPA. Alternatively, primary wild-type and tPA-deficient fibroblasts were stimulated with 100 ng/ml activated PDGF-CC protein. The cells were lysed as described previously (Li et al, 2000) and PDGFR-α was immunoprecipitated using a specific antiserum (Eriksson et al, 1992). Precipitated proteins were separated by SDS-PAGE under reducing conditions. Tyrosinephosphorylated receptors were detected by immunoblotting using an antiphosphotyrosine antibody (PY99, Santa Cruz). The membranes were stripped and reprobed using a polyclonal antibody against the C-terminal of the PDGFRs (CED) to detect receptor expression levels.

[3] = tested on: wild-type and tPA-deficient fibroblasts; assay: BrdU incorporation in primary fibroblasts; assay type: cell-based, mouse; conditions: 50 ng/ml, 24 hours BrdU labeling
Method: Cell nuclei were visualized with 4′,6-diamidine-2′-phenylindole dihydrochloride (DAPI), and BrdU-labeled cells were determined by immunofluorescence using antibodies to BrdU (FIG. 7B).
(§1) To monitor cell growth, both the cell proliferation reagent WST-1 (Roche) and BrdU (Sigma) were used. A total of 0.4×10^4 (WST-1) or 1×10^4 (BrdU) wild-type and tPA-deficient fibroblasts were seeded in triplicate-hexaplicate, and after attachment they were serum-starved overnight. Serum-starved cells were counted (WST-1 seeding control) and alternatively incubated for 24 hours in serum-free medium supplemented with 1 mg/ml BSA, and 50 μM BrdU in the BrdU experiment, in the absence or presence of 50 ng/ml activated PDGF-CC or tPA protein (#116, American Diagnostica Inc.). Upon counting, WST-1 reagent was added and measured according to the manufacturer's protocol using an ELISA reader. In the BrdU experiment, the cells were fixed in 4% paraformaldehyde in PBS for 30 min at room temperature and the DNA was denatured in 2M HCl for 20 min at room temperature and then blocked in 0.5% BSA, 0.5% Tween, and 10% goat serum in PBS. […] Quantification of the BrdU-positive cells was performed by counting all cells along the vertical and horizontal diameters of all wells.

[4] = cornea pocket model; cited from earlier work
[5] = tested on: tPA-deficient fibroblasts; assay: WST-1 growth assay of primary fibroblasts in serum-free medium; assay type: cell-based, mouse; conditions: 50 ng/ml added to serum-free culture medium, 24 hours
Method: It was observed that primary fibroblasts derived from tPA-deficient mice grew more slowly in culture than fibroblasts derived from wild-type animals, raising the possibility that activation of latent PDGF-CC by tPA generated autocrine and paracrine growth stimulatory loops for primary fibroblasts in culture. To analyze this effect, isolated wild-type and tPA-deficient fibroblasts were serum-starved overnight, and the growth of the cells during the next 24 hours was monitored using an enzyme-based viability assay (see Example 8, Materials and Methods).
as §1, with “reader.” for “reader. In the BrdU experiment, the cells were fixed in 4% paraformaldehyde in PBS for 30 min at room temperature and the DNA was denatured in 2M HCl for 20 min at room temperature and then blocked in 0.5% BSA, 0.5% Tween, and 10% goat serum in PBS.”

Chain of tPA (P00750 36-562): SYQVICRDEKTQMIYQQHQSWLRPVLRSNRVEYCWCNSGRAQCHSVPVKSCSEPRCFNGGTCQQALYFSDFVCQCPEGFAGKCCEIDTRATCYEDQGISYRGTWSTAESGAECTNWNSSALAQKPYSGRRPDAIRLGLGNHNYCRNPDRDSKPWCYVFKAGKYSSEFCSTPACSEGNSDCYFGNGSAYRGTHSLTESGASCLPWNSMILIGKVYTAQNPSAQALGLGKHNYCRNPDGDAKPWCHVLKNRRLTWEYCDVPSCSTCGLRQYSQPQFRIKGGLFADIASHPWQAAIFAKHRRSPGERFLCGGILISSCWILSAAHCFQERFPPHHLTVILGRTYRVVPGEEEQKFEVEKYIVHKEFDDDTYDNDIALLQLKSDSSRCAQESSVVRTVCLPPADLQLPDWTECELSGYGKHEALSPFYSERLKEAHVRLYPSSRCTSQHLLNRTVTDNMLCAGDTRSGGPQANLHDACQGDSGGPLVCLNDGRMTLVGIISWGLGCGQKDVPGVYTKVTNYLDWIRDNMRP
T1 sequence (P26618 25-1089): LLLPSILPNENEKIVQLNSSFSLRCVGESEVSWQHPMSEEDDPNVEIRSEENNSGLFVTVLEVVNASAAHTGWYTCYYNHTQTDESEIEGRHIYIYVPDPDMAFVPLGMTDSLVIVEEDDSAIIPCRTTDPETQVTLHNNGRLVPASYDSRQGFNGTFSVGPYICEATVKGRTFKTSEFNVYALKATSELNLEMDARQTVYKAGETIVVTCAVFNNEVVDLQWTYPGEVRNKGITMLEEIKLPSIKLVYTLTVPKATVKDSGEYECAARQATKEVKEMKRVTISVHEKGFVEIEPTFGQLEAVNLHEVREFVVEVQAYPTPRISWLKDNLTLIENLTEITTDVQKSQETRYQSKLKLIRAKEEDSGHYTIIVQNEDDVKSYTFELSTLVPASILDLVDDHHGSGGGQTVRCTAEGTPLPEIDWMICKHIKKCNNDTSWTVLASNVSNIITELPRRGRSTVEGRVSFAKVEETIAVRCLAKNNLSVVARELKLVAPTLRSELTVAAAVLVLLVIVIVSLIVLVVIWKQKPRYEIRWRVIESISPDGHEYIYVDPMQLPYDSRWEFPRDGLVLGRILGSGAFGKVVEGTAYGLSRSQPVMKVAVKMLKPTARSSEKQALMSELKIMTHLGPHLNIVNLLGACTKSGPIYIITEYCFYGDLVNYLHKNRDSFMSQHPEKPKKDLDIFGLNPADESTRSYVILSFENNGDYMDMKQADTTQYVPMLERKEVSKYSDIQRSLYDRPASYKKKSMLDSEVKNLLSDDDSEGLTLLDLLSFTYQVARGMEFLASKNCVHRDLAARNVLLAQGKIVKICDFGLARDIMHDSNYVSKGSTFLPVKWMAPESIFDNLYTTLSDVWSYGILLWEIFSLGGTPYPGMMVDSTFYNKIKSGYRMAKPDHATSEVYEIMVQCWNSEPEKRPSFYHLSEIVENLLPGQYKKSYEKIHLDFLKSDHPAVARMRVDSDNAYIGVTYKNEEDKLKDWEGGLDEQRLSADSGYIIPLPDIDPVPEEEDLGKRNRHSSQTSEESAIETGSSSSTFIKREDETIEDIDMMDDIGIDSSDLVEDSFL

Molecule | binding of tPA in pull-down (tPA [1]) | competition for tPA-mediated processing of latent PDGF-CC (tPA [2]) | induction of PDGFR-α tyrosine phosphorylation, tPA-deficient versus wild-type fibroblasts (PDGFR-α) | BrdU incorporation in tPA-deficient cells ([3]; serum-starved tPA-deficient fibroblasts) | BrdU incorporation in wild-type cells ([3]; serum-starved wild-type fibroblasts) | neoangiogenesis [4] | rescue of growth of tPA-deficient fibroblasts [5]
CUB domain: free CUB domain of PDGF-C; recombinant His6-tagged (residues 23-163) or c-myc-tagged (residues 1 to 165) (protein) ESNLSSKFQFSSNKEQNGVQDPQHERIITVSTNGSIHSPRFPHTYPRNTVLVWRLVAVEENVWIQLTFDERFGLEDPEDDICKYDFVEVEEPSDGTILGRWCGSGTVPGKQISKGNQIRIRFVSDEYFPSEPGFCIHYNIVHHHHHH | both domains were able to interact with tPA | efficiently competed for the interaction and processing of latent PDGF-CC by tPA | – | – | – | – | –
activated PDGF-CC: activated PDGF-CC protein, growth factor without CUB domains (protein) GRKSRVVDLNLLTEEVRLYSCTPRNFSVSIREELKRTDTIFWPGCLLVKRCGGNCACCLHNCNECQCVPSKVTKKYHEVLQLRPKTGVRGLHKSLTDVALEHHEECDCVCRGSTGG | – | – | more pronounced in the tPA-deficient cells as compared to wild type | strongly stimulated BrdU incorporation in the tPA-deficient cells | had less effect on wild-type cells | strong inducer of neoangiogenesis | allowed the cells to grow similar to the wild-type fibroblasts
